Assay results taken from the supplement of paper PMC9233669.
This sample holds only a part of the variants without activity.

Key:
biotinyl-Leu-oxazolone = assay: self-aminoacylation, catalytic enhancement (BLO) (fold over background); higher = more active; k-Seq, kA / k0A0; sequences stand for … in GGGAAUGGAUCCACAUCUACGAAUUC…UUCACUGCAGACUUGACGAAGCUG
Summary of the method: (§1)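 Each biotinyl-aminoacyl-oxazolone, at 2–1250 μM, was incubated with mutagenized RNA pools (0.43 μM) carrying a 21-nt variable region. The 50 μL reactions contained HEPES/NaCl/KCl/MgCl2/CaCl2 buffer with 5% acetonitrile at pH 6.9–7.0 and ran for 90 minutes at room temperature. After streptavidin capture, RNA was measured by qPCR in triplicate and by Illumina sequencing, and catalytic enhancement was calculated as median kA over the uncatalyzed rate from a pseudo-first-order fit of per-sequence fraction reacted.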

biotinyl-Ile-oxazolone = assay: self-aminoacylation, catalytic enhancement (BIO) (fold over background); higher = more active; k-Seq, kA / k0A0; sequences stand for … in GGGAAUGGAUCCACAUCUACGAAUUC…UUCACUGCAGACUUGACGAAGCUG
Summary of the method: as §1

biotinyl-Trp-oxazolone = assay: self-aminoacylation, catalytic enhancement (BWO) (fold over background); higher = more active; k-Seq, kA / k0A0; sequences stand for … in GGGAAUGGAUCCACAUCUACGAAUUC…UUCACUGCAGACUUGACGAAGCUG
Summary of the method: as §1

biotinyl-Phe-oxazolone = assay: self-aminoacylation, catalytic enhancement (BFO) (fold over background); higher = more active; k-Seq, kA / k0A0; sequences stand for … in GGGAAUGGAUCCACAUCUACGAAUUC…UUCACUGCAGACUUGACGAAGCUG
Summary of the method: as §1

biotinyl-Val-oxazolone = assay: self-aminoacylation, catalytic enhancement (BVO) (fold over background); higher = more active; k-Seq, kA / k0A0; sequences stand for … in GGGAAUGGAUCCACAUCUACGAAUUC…UUCACUGCAGACUUGACGAAGCUG
Summary of the method: as §1

biotinyl-Met-oxazolone = assay: self-aminoacylation, catalytic enhancement (BMO) (fold over background); higher = more active; k-Seq, kA / k0A0; sequences stand for … in GGGAAUGGAUCCACAUCUACGAAUUC…UUCACUGCAGACUUGACGAAGCUG
Summary of the method: as §1

In the case of “AUUACCCUGUUCAUCGGGUGA [Fam2.1 aminoacylation ribozyme variant]”, the self-aminoacylation (biotinyl-Leu-oxazolone) is reported as 9.74, the self-aminoacylation (biotinyl-Ile-oxazolone) is reported as 4.92 and the self-aminoacylation (biotinyl-Trp-oxazolone) is reported as 12. It also gave a self-aminoacylation (biotinyl-Phe-oxazolone) of 64.2, a self-aminoacylation (biotinyl-Val-oxazolone) of 5.19 and a self-aminoacylation (biotinyl-Met-oxazolone) of 9.44.
For “AUUACCCUGUUCGUCGAGUGA [Fam2.1 aminoacylation ribozyme variant]”, the self-aminoacylation (biotinyl-Leu-oxazolone) was 0.865, the self-aminoacylation (biotinyl-Ile-oxazolone) was 1.15 and the self-aminoacylation (biotinyl-Trp-oxazolone) was 1.44. It also gave a self-aminoacylation (biotinyl-Phe-oxazolone) of 0.834, a self-aminoacylation (biotinyl-Val-oxazolone) of 1.2 and a self-aminoacylation (biotinyl-Met-oxazolone) of 0.885.
For “AUUACCCUGUUCUUCGAGUGA [Fam2.1 aminoacylation ribozyme variant]”, the self-aminoacylation (biotinyl-Leu-oxazolone) was 5.58, the self-aminoacylation (biotinyl-Ile-oxazolone) was 3.05 and the self-aminoacylation (biotinyl-Trp-oxazolone) was 7.83. The self-aminoacylation (biotinyl-Phe-oxazolone) was 23.3, the self-aminoacylation (biotinyl-Val-oxazolone) was 3.41 and the self-aminoacylation (biotinyl-Met-oxazolone) was 5.6.
“AUUACCCUUAUCAUCGAGUGA [Fam2.1 aminoacylation ribozyme variant]” was tested, and the self-aminoacylation (biotinyl-Leu-oxazolone) was 13.2, the self-aminoacylation (biotinyl-Ile-oxazolone) was 5.68 and the self-aminoacylation (biotinyl-Trp-oxazolone) was 16.7. It also gave a self-aminoacylation (biotinyl-Phe-oxazolone) of 60.8, a self-aminoacylation (biotinyl-Val-oxazolone) of 6.51 and a self-aminoacylation (biotinyl-Met-oxazolone) of 14.1.
“AUUACCCUUGUCAUCAAGUGA [Fam2.1 aminoacylation ribozyme variant]” showed a self-aminoacylation (biotinyl-Leu-oxazolone) of 4.43, a self-aminoacylation (biotinyl-Ile-oxazolone) of 2.2 and a self-aminoacylation (biotinyl-Trp-oxazolone) of 6.3. It also gave a self-aminoacylation (biotinyl-Phe-oxazolone) of 12.5, a self-aminoacylation (biotinyl-Val-oxazolone) of 2.77 and a self-aminoacylation (biotinyl-Met-oxazolone) of 4.86.
“AUUACCCUUGUCAUCUAGUGA [Fam2.1 aminoacylation ribozyme variant]” showed a self-aminoacylation (biotinyl-Leu-oxazolone) of 7.22, a self-aminoacylation (biotinyl-Ile-oxazolone) of 3.76 and a self-aminoacylation (biotinyl-Trp-oxazolone) of 8.68. It also gave a self-aminoacylation (biotinyl-Phe-oxazolone) of 26.5, a self-aminoacylation (biotinyl-Val-oxazolone) of 3.81 and a self-aminoacylation (biotinyl-Met-oxazolone) of 7.09.
For “AUUACCGAGGUCAUCGAGUGA [Fam2.1 aminoacylation ribozyme variant]”, the self-aminoacylation (biotinyl-Leu-oxazolone) was 8.4, the self-aminoacylation (biotinyl-Ile-oxazolone) was 3.99 and the self-aminoacylation (biotinyl-Trp-oxazolone) was 10.8. It also gave a self-aminoacylation (biotinyl-Phe-oxazolone) of 38.1, a self-aminoacylation (biotinyl-Val-oxazolone) of 4.64 and a self-aminoacylation (biotinyl-Met-oxazolone) of 6.93.
With “AUUACCGCGGUCAUCGAGUGA [Fam2.1 aminoacylation ribozyme variant]” the self-aminoacylation (biotinyl-Leu-oxazolone) was 6.47, the self-aminoacylation (biotinyl-Ile-oxazolone) was 3.36 and the self-aminoacylation (biotinyl-Trp-oxazolone) was 7.16. The self-aminoacylation (biotinyl-Phe-oxazolone) was 36.1, the self-aminoacylation (biotinyl-Val-oxazolone) was 3.11 and the self-aminoacylation (biotinyl-Met-oxazolone) was 5.86.
“AUUACCGUCGUCAUCGAGUGA [Fam2.1 aminoacylation ribozyme variant]” showed a self-aminoacylation (biotinyl-Leu-oxazolone) of 3.42, a self-aminoacylation (biotinyl-Ile-oxazolone) of 2.36 and a self-aminoacylation (biotinyl-Trp-oxazolone) of 3.88. For the same sequence, the self-aminoacylation (biotinyl-Phe-oxazolone) was 8.91, the self-aminoacylation (biotinyl-Val-oxazolone) was 2.3 and the self-aminoacylation (biotinyl-Met-oxazolone) was 3.23.
With “AUUACCGUGAUCAUCGAGUGA [Fam2.1 aminoacylation ribozyme variant]” the self-aminoacylation (biotinyl-Leu-oxazolone) was 8.78, the self-aminoacylation (biotinyl-Ile-oxazolone) was 4.18 and the self-aminoacylation (biotinyl-Trp-oxazolone) was 10.5. The self-aminoacylation (biotinyl-Phe-oxazolone) was 44.9, the self-aminoacylation (biotinyl-Val-oxazolone) was 4.34 and the self-aminoacylation (biotinyl-Met-oxazolone) was 9.07.
“AUUACCGUGGACAUCGAGUGA [Fam2.1 aminoacylation ribozyme variant]” was tested, and the self-aminoacylation (biotinyl-Leu-oxazolone) was 3.92, the self-aminoacylation (biotinyl-Ile-oxazolone) was 2.29 and the self-aminoacylation (biotinyl-Trp-oxazolone) was 5.62. The self-aminoacylation (biotinyl-Phe-oxazolone) was 3.62, the self-aminoacylation (biotinyl-Val-oxazolone) was 2.68 and the self-aminoacylation (biotinyl-Met-oxazolone) was 3.47.
“AUUACCGUGGCCAUCGAGUGA [Fam2.1 aminoacylation ribozyme variant]” gave a self-aminoacylation (biotinyl-Leu-oxazolone) of 5.84, a self-aminoacylation (biotinyl-Ile-oxazolone) of 3.2 and a self-aminoacylation (biotinyl-Trp-oxazolone) of 8.11. The self-aminoacylation (biotinyl-Phe-oxazolone) was 32.8, the self-aminoacylation (biotinyl-Val-oxazolone) was 3.89 and the self-aminoacylation (biotinyl-Met-oxazolone) was 4.71.
“AUUACCGUGGUAAUCGAGUGA [Fam2.1 aminoacylation ribozyme variant]” gave a self-aminoacylation (biotinyl-Leu-oxazolone) of 9.2, a self-aminoacylation (biotinyl-Ile-oxazolone) of 3.63 and a self-aminoacylation (biotinyl-Trp-oxazolone) of 9.95. The self-aminoacylation (biotinyl-Phe-oxazolone) was 43.2, the self-aminoacylation (biotinyl-Val-oxazolone) was 4.18 and the self-aminoacylation (biotinyl-Met-oxazolone) was 8.54.
“AUUACCGUGGUCAACGAGUGA [Fam2.1 aminoacylation ribozyme variant]” was tested, and the self-aminoacylation (biotinyl-Leu-oxazolone) was 7.25, the self-aminoacylation (biotinyl-Ile-oxazolone) was 3.61 and the self-aminoacylation (biotinyl-Trp-oxazolone) was 9.2. The self-aminoacylation (biotinyl-Phe-oxazolone) was 36.7, the self-aminoacylation (biotinyl-Val-oxazolone) was 4.21 and the self-aminoacylation (biotinyl-Met-oxazolone) was 6.41.
“AUUACCGUGGUCAUCGAGUGG [Fam2.1 aminoacylation ribozyme variant]” showed a self-aminoacylation (biotinyl-Leu-oxazolone) of 1.81, a self-aminoacylation (biotinyl-Ile-oxazolone) of 1.27 and a self-aminoacylation (biotinyl-Trp-oxazolone) of 1.72. For the same sequence, the self-aminoacylation (biotinyl-Phe-oxazolone) was 7.04, the self-aminoacylation (biotinyl-Val-oxazolone) was 1.33 and the self-aminoacylation (biotinyl-Met-oxazolone) was 1.85.
“AUUACCGUGGUCAUCGAGUGU [Fam2.1 aminoacylation ribozyme variant]” was tested, and the self-aminoacylation (biotinyl-Leu-oxazolone) was 3.51, the self-aminoacylation (biotinyl-Ile-oxazolone) was 1.89 and the self-aminoacylation (biotinyl-Trp-oxazolone) was 4.27. For the same sequence, the self-aminoacylation (biotinyl-Phe-oxazolone) was 12.9, the self-aminoacylation (biotinyl-Val-oxazolone) was 2.46 and the self-aminoacylation (biotinyl-Met-oxazolone) was 3.17.
Sequence “AUUACCGUGGUCCUCGAGUGA [Fam2.1 aminoacylation ribozyme variant]” has a self-aminoacylation (biotinyl-Leu-oxazolone) of 4.19, a self-aminoacylation (biotinyl-Ile-oxazolone) of 2.57 and a self-aminoacylation (biotinyl-Trp-oxazolone) of 4.82. It also gave a self-aminoacylation (biotinyl-Phe-oxazolone) of 29.2, a self-aminoacylation (biotinyl-Val-oxazolone) of 3.69 and a self-aminoacylation (biotinyl-Met-oxazolone) of 4.11.
In the case of “AUUACCGUGGUUAUCGAGUGA [Fam2.1 aminoacylation ribozyme variant]”, the self-aminoacylation (biotinyl-Leu-oxazolone) is reported as 10.4, the self-aminoacylation (biotinyl-Ile-oxazolone) is reported as 4.22 and the self-aminoacylation (biotinyl-Trp-oxazolone) is reported as 11.4. The self-aminoacylation (biotinyl-Phe-oxazolone) was 59.4, the self-aminoacylation (biotinyl-Val-oxazolone) was 5.1 and the self-aminoacylation (biotinyl-Met-oxazolone) was 10.7.
“AUUACCUUGGUCAUCGAGUCA [Fam2.1 aminoacylation ribozyme variant]” gave a self-aminoacylation (biotinyl-Leu-oxazolone) of 0.786, a self-aminoacylation (biotinyl-Ile-oxazolone) of 0.854 and a self-aminoacylation (biotinyl-Trp-oxazolone) of 0.599. It also gave a self-aminoacylation (biotinyl-Phe-oxazolone) of 0.473, a self-aminoacylation (biotinyl-Val-oxazolone) of 0.81 and a self-aminoacylation (biotinyl-Met-oxazolone) of 0.691.
In the case of “AUUACCUUGGUCAUCGAGUGA [Fam2.1 aminoacylation ribozyme variant]”, the self-aminoacylation (biotinyl-Leu-oxazolone) is reported as 6.89, the self-aminoacylation (biotinyl-Ile-oxazolone) is reported as 3.7 and the self-aminoacylation (biotinyl-Trp-oxazolone) is reported as 8.16. It also gave a self-aminoacylation (biotinyl-Phe-oxazolone) of 7.72, a self-aminoacylation (biotinyl-Val-oxazolone) of 3.88 and a self-aminoacylation (biotinyl-Met-oxazolone) of 6.66.
Work on “AUUACCUUGGUCAUCGAGUUA [Fam2.1 aminoacylation ribozyme variant]” yielded a self-aminoacylation (biotinyl-Leu-oxazolone) of 0.814, a self-aminoacylation (biotinyl-Ile-oxazolone) of 1.18 and a self-aminoacylation (biotinyl-Trp-oxazolone) of 0.524. It also gave a self-aminoacylation (biotinyl-Phe-oxazolone) of 0.913, a self-aminoacylation (biotinyl-Val-oxazolone) of 1.03 and a self-aminoacylation (biotinyl-Met-oxazolone) of 1.19.
Sequence “AUUACGAUGGUCAUCGAGUGA [Fam2.1 aminoacylation ribozyme variant]” has a self-aminoacylation (biotinyl-Leu-oxazolone) of 4.54, a self-aminoacylation (biotinyl-Ile-oxazolone) of 2.99 and a self-aminoacylation (biotinyl-Trp-oxazolone) of 4.79. The self-aminoacylation (biotinyl-Phe-oxazolone) was 12.3, the self-aminoacylation (biotinyl-Val-oxazolone) was 3.17 and the self-aminoacylation (biotinyl-Met-oxazolone) was 3.43.
With “AUUACGCUGGUAAUCGAGUGA [Fam2.1 aminoacylation ribozyme variant]” the self-aminoacylation (biotinyl-Leu-oxazolone) was 5.76, the self-aminoacylation (biotinyl-Ile-oxazolone) was 2.84 and the self-aminoacylation (biotinyl-Trp-oxazolone) was 7.02. The self-aminoacylation (biotinyl-Phe-oxazolone) was 18.7, the self-aminoacylation (biotinyl-Val-oxazolone) was 2.77 and the self-aminoacylation (biotinyl-Met-oxazolone) was 5.48.
